{
  "source": "patent US20240409620A1",
  "about": "(CENTER FOR EXCELLENCE IN MOLECULAR CELL SCIENCE CHINESE …, published 2024)",
  "binders": {"B1": {"name": "4F1En1 (VH-S75R) (antibody, V domains shown)", "VH": "QVQLVESGGGVVQPGRSLRLSCAASGFSFYSYSVHWVRQAPGKGLEWVADVVYDGNHQHYTDSVKGRFTISRDTRKNTVYLQMGSLRAEDTALYYCTARSLVITLAGAGRDDYWGQGTTVTVSS", "VL": "DIVMTQSPLSLPVTPGEPASISCRSSQSLLHSNGYTYLDWYLQKPGQSPQLLIFLGSSRASGVPDRFSGSGSGTDFTLKISRVEAEDVGVYYCVQDLQTSLTFGGGTKLEIKR", "notes": "It is a human IgG captured through Fc"}},
  "key": {"[1]": {"target": "RSV/A/A2 fusion protein F on the virus (respiratory syncytial virus RSV/A/A2, UniProt P03420 26-574)", "experiment": "cell-based or functional assay"}, "[2]": {"target": "T1, RSV/A/A2 pre-fusion F protein (respiratory syncytial virus RSV/A/A2, UniProt P03420 26-109)", "T1 construct": "also called RSV A2 pre-fusion F protein; pre-F of RSV type A", "experiment": "BLI (Octet RED96), antibody captured on AHC sensor; reference MEDI8897"}, "[3]": {"target": "T2, RSV/B/B9320 pre-fusion F protein (respiratory syncytial virus RSV/B/B9320)", "T2 construct": "also called pre-F of RSV type B; recombinant DS-Cav1", "experiment": "BLI (Octet RED96), antibody captured on AHC sensor; reference MEDI8897"}, "[4]": {"target": "T1, RSV/A/A2 pre-fusion F protein", "experiment": "BLI (Octet RED96), antibody captured on AHC sensor; reference Palivizumab"}, "[5]": {"target": "T2, RSV/B/B9320 pre-fusion F protein", "experiment": "BLI (Octet RED96), antibody captured on AHC sensor; reference Palivizumab"}},
  "data": [
    {"binder": "B1", "values": [
      {"measurement": "IC50 against RSV/A2, fold lower than palivizumab", "setting": "[1]", "value": 62, "unit": "fold"},
      {"measurement": "neutralization potency for RSV/A/A2 strain, fold against 4F1-WT", "setting": "[1]", "value": 3, "unit": "times"},
      {"measurement": "fold higher affinity compared to MEDI8897", "setting": "[2]", "value": "≥ 10", "unit": "fold"},
      {"measurement": "fold higher binding affinity compared to MEDI8897", "setting": "[3]", "value": "≥ 100", "unit": "fold"},
      {"measurement": "fold higher affinity compared to PVZ", "setting": "[4]", "value": "≥ 10", "unit": "fold"},
      {"measurement": "fold higher binding affinity compared to PVZ", "setting": "[5]", "value": "≥ 100", "unit": "fold"}
    ]}
  ]
}
